Experimental data: the supplement of paper PMC12458215
± gives the uncertainty stated by the source.

Tested on: HEK293T
Test: plasma membrane surface immunostaining intensity (anti-HA, deep receptor scanning) (arbitrary fluorescence units); higher = higher plasma membrane expression

Sequence	plasma membrane surface immunostaining intensity (GPCR class: A (Olfactory))	also measured
MLLCTARLVGLQLLISCCWAFACHSTESSPDFTLPGDYLLAGLFPLHSGCLQVRHRPEVTLCDRSCSFNEHGYHLFQAMRLGVEEINNSTALLPNITLGYQLYDVCSDSANVYATLRVLSLPGQHHIELQGDLLHYSPTVLAVIGPDSTNRAATTAALLSPFLVPMISYAASSETLSVKRQYPSFLRTIPNDKYQVETMVLLLQKFGWTWISLVGSSDDYGQLGVQALENQATGQGICIAFKDIMPFSAQVGDERMQCLMRHLAQAGATVVVVFSSRQLARVFFESVVLTNLTGKVWVASEAWALSRHITGVPGIQRIGMVLGVAIQKRAVPGLKAFEEAYARADKKAPRPCHKGSWCSSNQLCRECQAFMAHTMPKLKAFSMSSAYNAYRAVYAVAHGLHQLLGCASGACSRGRVYPWQLLEQIHKVHFLLHKDTVAFNDNRDPLSSYNIIAWDWNGPKWTFTVLGSSTWSPVQLNINETKIQWHGKDNQVPKSVCSSDCLEGHQRVVTGFHHCCFECVPCGAGTFLNKSDLYRCQPCGKEEWAPEGSQTCFPRTVVFLALREHTSWVLLAANTLLLLLLLGTAGLFAWHLDTPVVRSAGGRLCFLMLGSLAAGSGSLYGFFGEPTRPACLLRQALFALGFTIFLSCLTVRSFQLIIIFKFSTKVPTFYHAWVQNHGAGLFVMISSAAQLLICLTWLVVWTPLPAREYQRFPHLVMLECTETNSLGFILAFLYNGLLSISAFACSYLGKDLPENYNEAKCVTFSLLFNFVSWIAFFTTASVYDGKYLPAANMMAGLSSLSSGFGGYFLPKCYVILCRPDLNSTEHFQASIQDYTRRCGST [TAS1R1]		plasma membrane surface immunostaining intensity (GPCR class: Taste): 124 ± 5.5
MAVAPLRGALLLWQLLAAGGAALEIGRFDPERGRGAAPCQAVEIPMCRGIGYNLTRMPNLLGHTSQGEAAAELAEFAPLVQYGCHSHLRFFLCSLYAPMCTDQVSTPIPACRPMCEQARLRCAPIMEQFNFGWPDSLDCARLPTRNDPHALCMEAPENATAGPAEPHKGLGMLPVAPRPARPPGDLGPGAGGSGTCENPEKFQYVEKSRSCAPRCGPGVEVFWSRRDKDFALVWMAVWSALCFFSTAFTVLTFLLEPHRFQYPERPIIFLSMCYNVYSLAFLIRAVAGAQSVACDQEAGALYVIQEGLENTGCTLVFLLLYYFGMASSLWWVVLTLTWFLAAGKKWGHEAIEAHGSYFHMAAWGLPALKTIVILTLRKVAGDELTGLCYVASTDAAALTGFVLVPLSGYLVLGSSFLLTGFVALFHIRKIMKTGGTNTEKLEKLMVKIGVFSILYTVPATCVIVCYVYERLNMDFWRLRATEQPCAAAAGPGGRRDCSLPGGSVPTVAVFMLKIFMSLVVGITSGVWVWSSKTFQTWQSLCYRKIAAGRARAKACRAPGSYGRGTHCHYKAPTVVLHMTKTDPSLENPTHL [FZD9]		plasma membrane surface immunostaining intensity (GPCR class: F): 1560 ± 410
MDPEETSVYLDYYYATSPNSDIRETHSHVPYTSVFLPVFYTAVFLTGVLGNLVLMGALHFKPGSRRLIDIFIINLAASDFIFLVTLPLWVDKEASLGLWRTGSFLCKGSSYMISVNMHCSVLLLTCMSVDRYLAIVWPVVSRKFRRTDCAYVVCASIWFISCLLGLPTLLSRELTLIDDKPYCAEKKATPIKLIWSLVALIFTFFVPLLSIVTCYCCIARKLCAHYQQSGKHNKKLKKSIKIIFIVVAAFLVSWLPFNTFKFLAIVSGLRQEHYLPSAILQLGMEVSGPLAFANSCVNPFIYYIFDSYIRRAIVHCLCPCLKNYDFGSSTETSDSHLTKALSTFIHAEDFARRRKRSVSL [GPR15]		plasma membrane surface immunostaining intensity (GPCR class: A): 342 ± 19
MDTGNWSQVAEFIILGFPHLQGVQIYLFLLLLLIYLMTVLGNLLIFLVVCLDSRLHTPMYHFVSILSFSELGYTAATIPKMLANLLSEKKTISFSGCLLQIYFFHSLGATECYLLTAMAYDRYLAICRPLHYPTLMTPTLCAEIAIGCWLGGLAGPVVEISLISRLPFCGPNRIQHVFCDFPPVLSLACTDTSINVLVDFVINSCKILATFLLILCSYVQIICTVLRIPSAAGKRKAISTCASHFTVVLIFYGSILSMYVQLKKSYSLDYDQALAVVYSVLTPFLNPFIYSLRNKEIKEAVRRQLKRIGILA [OR6N1]	347 ± 130	
MDGTNGSTQTHFILLGFSDRPHLERILFVVILIAYLLTLVGNTTIILVSRLDPHLHTPMYFFLAHLSFLDLSFTTSSIPQLLYNLNGCDKTISYMGCAIQLFLFLGLGGVECLLLAVMAYDRCVAICKPLHYMVIMNPRLCRGLVSVTWGCGVANSLAMSPVTLRLPRCGHHEVDHFLREMPALIRMACVSTVAIEGTVFVLAVGVVLSPLVFILLSYSYIVRAVLQIRSASGRQKAFGTCGSHLTVVSLFYGNIIYMYMQPGASSSQDQGMFLMLFYNIVTPLLNPLIYTLRNREVKGALGRLLLGKRELGKE [OR2W3]	129 ± 7.6	
MVWENQTFNSIFILLGIFNHSPTHTFLFSLVLGIFSLALMENISMVLLIYIEKQLHTPMYFLLSQLSLMDLMLICTTLPKMIFSYLSGKKSISLAGCGTQIFFYVSLLGAECFLLAVMAYDRYVAICHPLQYTILMNPKLCVFMTVASWTLGSLDGIIVLAAVLSFSYCSSLEIHHFFCDVAALLPLSCTETSAFERLLVICCVVMLIFPVSVIILSYSHVLRAVIHMGSGESRRKAFTTCSSHLSVVGLYYGAAMFMYMRPASKHTPDQDKMVSAFYTILTPMLNPLIYSLRNKEVFRALQKVLKKRKLI [OR2M4]	172 ± 36	
